Measured values reported in patent US20220184177A1 (SAINT JOSEPH S UNIVERSITY, published 2022).
Where no end group is shown, it is not given here. The star is where a group is joined. Biotin = O=C1N[C@H]2[C@H](CS[C@H]2CCCCC(=O)*)N1

B1: Recombinant Full-Length CAPER HCC1.3 (other)
chain: ADDIDIEAMLEAPYKKDENKLSSANGHEERSKKRKKSKSRSRSHERKRSKSKERKRSRDRERKKSKSRERKRSRSKERRRSRSRSRDRRFRGRYRSPYSGPKFNSAIRGKIGLPHSIKLSRRRSRSKSPFRKDKSPVREPIDNLTPEERDARTVFCMQLAARIRPRDLEEFFSTVGKVRDVRMISDRNSRRSKGIAYVEFVDVSSVPLAIGLTGQRVLGVPIIVQASQAEKNRAAAMANNLQKGSAGPMRLYVGSLHFNITEDMLRGIFEPFGRIESIQLMMDSETGRSKGYGFITFSDSECAKKALEQLNGFELAGRPMKVGHVTERTDASSASSFLDSDELERTGIDLGTTGRLQLMARLAEGTGLQIPPAAQQALQMSGSLAFGAVADLQTRLSQQTEASALAAAASVQPLATQCFQLSNMFNPQTEEEVGWDTEIKDDVIEECNKHGGVIHIYVDKNSAQGNVYVKCPSIAAAIAAVNALHGRWFAGKMITAAYVPLPTYHNLFPDSMTATQLLVPSRR
notes: Bought from R&D Systems; also called full-length recombinant CAPER; CAPER isoform HCC1.3
B5: His-tagged recombinant c-Jun (other, UniProt P05412 1-331, looked up)
chain: MTAKMETTFYDDALNASFLPSESGPYGYSNPKILKQSMTLNLADPVGSLKPHLRAKNSDLLTSPDVGLLKLASPELERLIIQSSNGHITTTPTPTQFLCPKNVTDEQEGFAEGFVRALAELHSQNTLPSVTSAAQPVNGAGMVAPAVASVAGGSGSGGFSASLHSEPPVYANLSNFNPGALSSGGGAPSYGAAGLAFPAQPQQQQQPPHHLPQQMPVQHPRLQALKEEPQTVPEMPGETPPLSPIDMESQERIKAERKRMRNRIAASKCRKRKLERIARLEEKVKTLKAQNSELASTANMLREQVAQLKQKVMNHVNSGCQLMLTQQLQTF
notes: Captured on BLI tips by an anti-his tag antibody; also called c-Jun receptor; c-Jun component of AP-1; not shown: his tag

What was measured:
Estrogen Receptor α = molecular target: T1, Estrogen Receptor α (UniProt P03372 1-595, limits assumed); experiment: binding kinetics on ERα (method not described, presumably BLI)
T1 construct: also called ERα; ERa
T1 sequence (looked up): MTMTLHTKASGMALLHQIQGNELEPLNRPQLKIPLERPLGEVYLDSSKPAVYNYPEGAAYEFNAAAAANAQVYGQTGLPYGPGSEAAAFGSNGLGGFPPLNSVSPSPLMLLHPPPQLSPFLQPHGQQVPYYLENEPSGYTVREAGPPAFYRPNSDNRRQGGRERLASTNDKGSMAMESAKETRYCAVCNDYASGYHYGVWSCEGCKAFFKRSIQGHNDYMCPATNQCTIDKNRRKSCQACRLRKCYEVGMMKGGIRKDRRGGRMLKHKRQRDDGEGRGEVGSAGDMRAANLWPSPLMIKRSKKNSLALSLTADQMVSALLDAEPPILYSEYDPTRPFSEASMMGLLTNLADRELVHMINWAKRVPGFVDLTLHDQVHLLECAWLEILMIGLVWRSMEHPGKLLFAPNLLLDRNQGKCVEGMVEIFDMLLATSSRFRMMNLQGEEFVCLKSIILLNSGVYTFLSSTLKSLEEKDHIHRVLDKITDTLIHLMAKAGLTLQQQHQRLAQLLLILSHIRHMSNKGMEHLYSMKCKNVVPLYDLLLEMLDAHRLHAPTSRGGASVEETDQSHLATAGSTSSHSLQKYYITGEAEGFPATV

[1] = molecular target: B5; experiment: BLI (Octet), His-tagged c-Jun captured on anti-His tips, peptide in solution
[2] = molecular target: B5; experiment: BLI (Octet), his-tagged c-Jun captured by anti-his antibody, 1:1 model
[3] = molecular target: B1; experiment: as above
[4] = molecular target: B5; experiment: BLI, his-tagged c-Jun captured by anti-his antibody

Binder: B1
- Kd (Estrogen Receptor α): 0.02 nM
- koff (Estrogen Receptor α): 2.34e-05 s⁻¹
- kon (Estrogen Receptor α): 937000 M⁻¹ s⁻¹

B2: CAPER peptide Scrambled (peptide)
peptide: Biotin-VGDALQGLRLFSTQASIGAQMEQLAAQPLRAGQMLQLAQASPLRT
notes: Control peptide; also called CAPER Scrambled Peptide; CAPER scrambled peptide
- binding result [1]: no binding (tested: 1000 (no unit printed on the sheet))

B3: CAPER peptide HCC1.3 (amino acid residues 356-400) (peptide)
peptide: Biotin-RLQLMARLAEGTGLQIPPAAQQALQMSGSLAFGAVADLQTRLSQQ
notes: Custom synthesized (LifeTein), crude purity, N-terminal biotin; A TAT control peptide was run alongside, so the TAT form is possible
- Kd (Estrogen Receptor α): 4.5 nM
- koff (Estrogen Receptor α): 0.000115 s⁻¹
- kon (Estrogen Receptor α): 25400 M⁻¹ s⁻¹
- Kd [2]: 8.89 nM
- koff [2]: 0.000337 s⁻¹
- kon [2]: 37900 M⁻¹ s⁻¹

B4: CAPER peptide HCC1.4 (amino acid residues 356-400) (peptide)
peptide: Biotin-RLQLMARLAEGTGLQIPPAAQQALQMSGSLAFGAVAEFSFVIDLQ
notes: Custom synthesized (LifeTein), crude purity, N-terminal biotin
- Kd (Estrogen Receptor α): 30.2 nM
- koff (Estrogen Receptor α): 0.00172 s⁻¹
- kon (Estrogen Receptor α): 57100 M⁻¹ s⁻¹
- Kd [2]: 25.6 nM
- koff [2]: 0.00098 s⁻¹
- kon [2]: 38300 M⁻¹ s⁻¹

Binder: B5
- Kd [3]: 0.18 nM
- koff [3]: 5.66e-05 s⁻¹
- kon [3]: 312000 M⁻¹ s⁻¹

B6: TAT Control Peptide (peptide)
peptide: Biotin-YGRKKRRQRRR
notes: Control peptide; also called TAT only control
- binding result [4]: no binding
